Primed or numbered codes have the meaning given here. No end group written: not given here. FITC′ = fluorescein isothiocyanate; Ahx = NCCCCCC(=O)O
Key:
[1] = molecular target: T1, recombinant human TLR4-MD2 protein (R&D Systems) (human, UniProt O00206 24-631; Q9Y6Y9 17-160); test: fluorescence polarization, 2 µM FITC-SPA4 with 0-5.6 µM TLR4-MD2, one-site fit, average Kd without blank subtraction; without blank subtraction
T1 construct: range 24-631;range 17-160; Bought protein, described as a mixture of recombinant human TLR4 and MD2 proteins expressed in NS0 cells; also called recombinant-TLR4-MD2 protein; soluble recombinant TLR4-MD2
Experimental: (§1) Experimental data were curve-fitted using Graphpad Prism program, and the binding affinity (Kd) was determined.
(§2) Lower values of the Kd indicate strong binding affinity.

[2] = molecular target: T1, recombinant human TLR4-MD2 protein (R&D …); test: fluorescence polarization, 2 µM FITC-SPA4 peptide with increasing recombinant TLR4-MD2, one-site binding fit, one representative experiment
Experimental: The background fluorescence polarization values were subtracted and plotted. The binding plot was then fitted into a one-site binding model using standard regression analysis and Kd values were noted. Results are from one representative experiment out of a total of three separate experiments performed at different times.
Regression analysis was carried out using the Graphpad Prism program (Graphpad software, La Zolla, Calif.). Experimental data were curve-fitted using Graphpad Prism program, and the binding affinity (Kd) was determined.

[3] = molecular target: T1, recombinant human TLR4-MD2 protein (R&D …); test: fluorescence polarization, 2 µM FITC-SPA4 with 0-5.6 µM TLR4-MD2, one-site fit, average Kd with blank subtraction; with blank subtraction
Experimental: as §1, §2

T1 sequence (O00206 other isoform, or with tags, fused parts or gaps limits assumed, form in doubt, chain 1 of 2): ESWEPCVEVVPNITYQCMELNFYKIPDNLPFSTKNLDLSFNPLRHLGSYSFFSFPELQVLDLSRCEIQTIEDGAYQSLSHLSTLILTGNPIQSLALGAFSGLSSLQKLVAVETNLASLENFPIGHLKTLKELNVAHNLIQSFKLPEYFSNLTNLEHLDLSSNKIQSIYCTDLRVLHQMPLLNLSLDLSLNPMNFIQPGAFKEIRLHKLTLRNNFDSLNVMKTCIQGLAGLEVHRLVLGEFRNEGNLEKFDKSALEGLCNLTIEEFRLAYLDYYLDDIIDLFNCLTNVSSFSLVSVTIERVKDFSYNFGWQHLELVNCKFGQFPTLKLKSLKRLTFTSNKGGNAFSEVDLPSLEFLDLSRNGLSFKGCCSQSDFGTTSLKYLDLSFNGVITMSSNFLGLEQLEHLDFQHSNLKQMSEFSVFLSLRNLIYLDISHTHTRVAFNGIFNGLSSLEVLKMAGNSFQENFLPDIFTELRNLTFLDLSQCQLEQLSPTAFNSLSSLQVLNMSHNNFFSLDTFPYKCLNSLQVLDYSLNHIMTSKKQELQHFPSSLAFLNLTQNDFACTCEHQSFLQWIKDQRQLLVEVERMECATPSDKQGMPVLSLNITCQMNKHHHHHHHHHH
T1 sequence (Q9Y6Y9 other isoform, or with tags, fused parts or gaps limits assumed, form in doubt, chain 2 of 2): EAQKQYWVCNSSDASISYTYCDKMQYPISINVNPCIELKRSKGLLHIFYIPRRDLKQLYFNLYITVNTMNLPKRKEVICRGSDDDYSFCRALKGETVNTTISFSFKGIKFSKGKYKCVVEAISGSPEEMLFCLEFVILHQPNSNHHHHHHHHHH

B1: FITC-SPA4 peptide (peptide)
peptide: {FITC′-Ahx}-GDFRYSDGTPVNYTNWYRGE
notes: also called fluorescein isothiocyanate conjugated SPA4 peptide
Binder B1 has a Kd [1] of 255 nM, a Kd [2] of 314 nM and a Kd [3] of 407 nM.
